Consider 1 molecule from US20240100176A1 (Eli Lilly, published 2024).

Common to all, as to experiment: capture ELISA: Ab1 on anti-human IgG Fc, His-tagged receptor at 1 µg/mL, anti-His HRP
A general note: ELISA stands for enzyme-linked immunosorbent assay.

The target in experiment [1] is T1, hexahistidine tagged human IL-4Rα ECD K195D (human, UniProt P24394 26-232).
T1 construct: not shown: hexahistidine tag
The source says: (§1) Example 2d. […] Briefly, thirty surface amino acid residue substitutions were introduced individually into hexahistidine tagged human IL-4Rα extra cellular domain (ECD) as follows: K2D, E6R, K22D, P26R, T31R, F41A, L42G, L43G, E45R, E52R, G56R, D66R, A71R, Q82G, K87D, E94R, H107A, D108R, P124R, D125R, D143R, R148D, L155R, R160D, S164R, S168R, Q181R, P192R, K195D, or H197G. Each mutant protein having a single amino acid residue substitution as described above was transiently expressed in CHO cells and purified using standard immobilized metal affinity chromatography techniques. […] The plates were then washed 3 times with PBST and the exemplified human IL-4Rα antibody was added to the wells at a final concentration of 1 μg/mL in PBS-casein and incubated for 1 hour at room temperature. The plates were washed 3 times with PBST, the IL-4Rα mutant proteins were serially diluted 5-fold from 1 μg/mL for 3 points. in PBS-casein and added to the plate at 50 μL/well and incubated for 1 hour at room temperature. The plates were washed 3 times with PBST and a 1000-fold dilution of anti-histidine tag antibody HRP conjugate (R&D Systems, Cat. #MAB050H) in PBS-casein was added and incubated for 45 minutes at room temperature. The plates were washed 3 times, TMB substrate (Pierce, Cat. #34028) was added per manufacturer instructions, the reaction was quenched with H₂SO₄, and absorbance was read at 450 nm on an ELISA plate reader.

In experiment [2] the target is T2, hexahistidine tagged human IL-4Rα ECD P124R (human, UniProt P24394 26-232).
T2 construct: not shown: hexahistidine tag
From the text: as §1

Experiment [3] has as its target T3, hexahistidine tagged human IL-4Rα ECD D143R (human, UniProt P24394 26-232).
T3 construct: not shown: hexahistidine tag
From the text: as §1

Experiment [4] addresses T4, hexahistidine tagged human IL-4Rα ECD R148D (human, UniProt P24394 26-232).
T4 construct: not shown: hexahistidine tag
From the text: as §1

Experiment [5] has as its target T5, hexahistidine tagged human IL-4Rα ECD E6R (human, UniProt P24394 26-232).
T5 construct: not shown: hexahistidine tag
From the text: as §1

In experiment [6] the target is T6, hexahistidine tagged human IL-4Rα ECD F41A (human, UniProt P24394 26-232).
T6 construct: not shown: hexahistidine tag
From the text: as §1

Experiment [7] has as its target T7, hexahistidine tagged human IL-4Rα ECD Q181R (human, UniProt P24394 26-232).
T7 construct: not shown: hexahistidine tag
From the text: as §1

Experiment [8] deals with T8, hexahistidine tagged human IL-4Rα ECD T31R (human, UniProt P24394 26-232).
T8 construct: not shown: hexahistidine tag
From the text: as §1

T2 sequence (P24394 26-232 P149R): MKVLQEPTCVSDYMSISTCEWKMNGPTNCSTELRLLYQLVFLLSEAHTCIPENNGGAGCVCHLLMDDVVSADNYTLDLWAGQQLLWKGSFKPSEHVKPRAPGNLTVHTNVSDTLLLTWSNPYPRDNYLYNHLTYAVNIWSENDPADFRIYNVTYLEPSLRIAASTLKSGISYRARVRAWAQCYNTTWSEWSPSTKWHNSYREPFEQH
T5 sequence (P24394 other isoform, or with tags, fused parts or gaps): as the sequence (P24394 26-232 P149R) above, with E6R, R124P counted along it
T4 sequence (P24394 26-232 R173D): as the sequence (P24394 26-232 P149R) above, with R124P, R148D counted along it
T8 sequence (P24394 26-232 T56R): as the sequence (P24394 26-232 P149R) above, with T31R, R124P counted along it
T7 sequence (P24394 26-232 Q206R): as the sequence (P24394 26-232 P149R) above, with R124P, Q181R counted along it
T3 sequence (P24394 26-232 D168R): as the sequence (P24394 26-232 P149R) above, with R124P, D143R counted along it

B1: anti-human IL-4Rα antibody Ab1 (antibody, human IgG4 S228P, kappa)
heavy: QVQLVESGGGLVQPGGSLRLSCVASGFTFSHSSMNWVRQAPGKGLEWVSYISRATGAVYYADSVKGRFTISRDNAKNSLYLQMNSLRDEDTAVYYCAREPVFDYWGQGTLVTVSSASTKGPCVFPLAPCSRSTSESTAALGCLVKDYFPEPVTVSWNSGALTSGVHTFPAVLQSSGLYSLSSVVTVPSSSLGTKTYTCNVDHKPSNTKVDKRVESKYGPPCPPCPAPEFLGGPSVFLFPPKPKDTLMISRTPEVTCVVVDVSQEDPEVKFNWYVDGVEVHNAKTKPREEQFNSTYRVVSVLTVLHQDWLNGKEYKCKVSNKGLPSSIEKTISKAKGQPREPQVYTLPPSREEMTKNQVSLTCLVKGFYPSDICVEWESNGQPENNYKTTPPVLDSDGSFFLYSRLTVDKSRWQQGNVFSCSVMHEALHNHYTQKSLSLSLG
light: DIQMTQSPSAMSASVGDRVTITCRASQDISNYLAWFQQKPGKVPTRLIYAASSLQSGVPSRFSGSGSGTEFTLTISSLQPEDFATYYCLQWSSYPRTFGQGTKVEIKRTVAAPSVFIFPPSDEQLKSGTASVVCLLNNFYPREAKVQWKVDNALQSGNSQESVTEQDSKDSTYSLSSTLTLSKADYEKHKVYACEVTHQGLSSPVTKSFNRGEC
notes: human kappa light chain; also called anti-human IL-4Rα Ab1; unconjugated Ab1
With B1, the “ELISA (OD450)” value in experiment [1] was found to be 1.91 OD450; in experiment [2], 1.84 OD450; in experiment [3] it was 1.75 OD450; in experiment [4], 1.76 OD450; in experiment [5] it was 2.25 OD450; in experiment [6], 1.76 OD450. Also, the figures for the “ELISA (OD450)” value in experiment [7] and in experiment [8] were 1.91 OD450 and 1.64 OD450, respectively.
